Reference: patent publication US20210070872A1 (AGENUS, published 2021)

Experiments:
[1] = biological target: purified recombinant human GITR protein (Example 1) (human) (UniProt Q9Y5U5); assay: SPR (BIAcore), huGITR immobilized on CM5, analyte 12.5-200 nM
[2] = biological target: T1, V1M cynomolgus GITR on 1624-5 cells (cynomolgus monkey, UniProt Q9Y5U5 26-241 (human entry)); assay: flow cytometry on 1624-5 cells
T1 chain: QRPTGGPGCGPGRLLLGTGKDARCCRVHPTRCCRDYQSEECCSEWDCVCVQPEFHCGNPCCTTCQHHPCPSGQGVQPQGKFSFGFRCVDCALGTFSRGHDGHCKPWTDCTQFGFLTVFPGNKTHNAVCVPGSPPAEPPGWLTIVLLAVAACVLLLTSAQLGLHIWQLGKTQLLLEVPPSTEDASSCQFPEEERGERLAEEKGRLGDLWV

[3] = biological target: T2, V1M/Q62P/S63G cynomolgus GITR on 1624-5 cells (cynomolgus monkey, UniProt Q9Y5U5 26-241 (human entry)); assay: flow cytometry on 1624-5 cells, 2 µg/ml
T2 construct: also called mutant cynomolgus GITR V1M/Q62P/S63G
T2 chain: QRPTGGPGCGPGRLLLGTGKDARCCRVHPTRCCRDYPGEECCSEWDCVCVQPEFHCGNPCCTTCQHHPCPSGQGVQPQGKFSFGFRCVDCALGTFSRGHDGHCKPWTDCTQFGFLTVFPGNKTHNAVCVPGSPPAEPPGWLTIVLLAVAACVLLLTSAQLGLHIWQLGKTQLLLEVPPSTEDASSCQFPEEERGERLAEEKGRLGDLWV

[4] = biological target: T3, human GITR D60A mutant on 1624-5 cells (human, UniProt Q9Y5U5 26-241); assay: flow cytometry on 1624-5 cells, 2 µg/ml, MFI ratio to polyclonal antibody
T3 chain: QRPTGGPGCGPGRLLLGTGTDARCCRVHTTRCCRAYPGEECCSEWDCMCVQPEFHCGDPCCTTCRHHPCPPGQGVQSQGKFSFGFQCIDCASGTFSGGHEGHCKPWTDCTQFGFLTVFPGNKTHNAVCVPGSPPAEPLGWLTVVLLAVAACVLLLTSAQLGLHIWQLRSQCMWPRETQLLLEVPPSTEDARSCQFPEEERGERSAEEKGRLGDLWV
Protocol: (§1) An average MFI ratio (“AMFI ratio”) was calculated based on the individual MFI ratios for all the mutants. FIG. 34A is a table summarizing the binding of Hum231#2, three germline variants (pab1967, pab1975 and pab1979) and the reference antibody m6C8 to1624-5 cells expressing human GITR alanine mutants. An individual MFI ratio that is above 60% of the AMFI ratio is considered to indicate similar binding, after normalization, of that of the polyclonal antibody and is represented by “+” in FIG. 34A. An individual MFI ratio that is between 30% and 60% of the AMFI ratio is represented by “+/−” in FIG. 34A. An individual MFI ratio that is below 30% of the AMFI ratio is represented by “−” in FIG. 34A.
(§2) All the mean fluorescence intensity (MFI) values were calculated as the mean of two measurements. […] The percentage of binding of an antibody to the GITR alanine mutants relative to the wild type GITR was calculated by dividing a particular MFI ratio for the GITR alanine mutants by the corresponding MFI ratio for the wild type (e.g., dividing MFI ratio_{Hum231#2, D60A} by MFI ratio_{Hum231#2, WT}). The percentage of reduction in binding was determined by calculating, e.g., 100%*(1−(MFI ratio_{Hum231#2, D60A}/MFI ratio_{Hum231#2, WT})).

[5] = biological target: T4, human GITR G63A mutant on 1624-5 cells (human, UniProt Q9Y5U5 26-241); assay: as above
T4 chain: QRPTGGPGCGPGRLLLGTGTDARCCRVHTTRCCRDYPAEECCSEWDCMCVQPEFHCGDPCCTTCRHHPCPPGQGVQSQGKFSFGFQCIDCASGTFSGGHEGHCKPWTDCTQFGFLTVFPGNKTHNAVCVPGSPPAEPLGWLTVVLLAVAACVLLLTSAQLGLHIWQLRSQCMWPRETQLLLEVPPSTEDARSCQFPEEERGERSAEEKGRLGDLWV
Protocol: as §1, §2

[6] = biological target: T5, GITR antigen (R&D systems, di-sulfide-linked homodimer; 689-GR) (human, UniProt Q9Y5U5 26-161); assay: SPR (BIAcore T100/T200), antibody captured via anti-human Fab, GITR antigen 40/10/2.5 nM, 1:1 model
T5 construct: Bought
T5 sequence: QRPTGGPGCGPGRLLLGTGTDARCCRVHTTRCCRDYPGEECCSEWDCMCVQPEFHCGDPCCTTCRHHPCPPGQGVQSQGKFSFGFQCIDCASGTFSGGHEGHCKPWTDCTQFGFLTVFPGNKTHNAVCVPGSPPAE
Protocol: All interactions were analyzed at 25° C. using 1× DPBS (PAA, H15-002) plus P20 (0.05%, Pierce, 28320) as running buffer. Anti-GITR antibodies (8 μg/ml in running buffer) were captured to the chip surface of a CM5 sensor chip (GE Healthcare, Series S CM5, BR-1005-30) via an immobilized anti-human Fab antibody (GE Healthcare, Fab Capture Kit, 28958325). To detect unspecific interactions of the GITR antigen, antibody capture was only performed in flow cell 2, whereas in flow cell 1 only the capturing antibody was immobilized. In addition, an unrelated antibody (anti-IL-1β; SK48E26; International Publication No. WO 95/001997) was used to assess specificity of GITR binding. After capture of the anti-GITR antibodies GITR antigen (R&D systems, di-sulfide-linked homodimer; 689-GR) was run through both flow cells in different amounts (40 nM, 10 nM and 2.5 nM) for each antibody. Also a blank curve (running buffer only) was included in each run. Association was run for 90 s and dissociation for 600 s with a flow rate of 10 μl/min. After each run a regeneration step was performed with 10 mM Glycine pH2.0 (GE Healthcare, BR-1003-55) for 60 s with 30 μl/min. Binding curves were evaluated using BIAcore® T200 evaluation software version 2.0.1 applying a Langmuir 1:1 model with global fit of Rmax.

| Molecule | Ka [1] | Kd [1] | binding result [2] | binding result [3] | percent reduction in binding relative to wild type human GITR [4] | percent reduction in binding relative to wild type human GITR [5] | Kd [6] | koff [6] | kon [6] | percent increase in binding relative to wild type human GITR [5] |
| --- | --- | --- | --- | --- | --- | --- | --- | --- | --- | --- |
| human GITR-L (Example 1, BIAcore analyte) (from UniProt Q9UNG2 49-177) (ligand) | 1.81e+08 M⁻¹ | 5.54 nM | – | – | – | – | – | – | – | – |
| Hum231#2 (antibody, human IgG1, V domains shown, Human IgG1 with T109S (Kabat) in the light chain constant domain; also called humanized variant Hum231#2 (IGHV1-2*02 and IGK4-1*01)) VH: QVQLVQSGAEVKKPGASVKVSCKGSGYTFTDYAMYWVRQAPGQGLEWIGVIRTYSGDVTYNQKFKDRATMTVDKSISTAYMELSRLRSDDTAVYYCAKSGTVRGFAYWGQGTLVTVSS VL: DIVMTQSPDSLAVSLGERATINCKSSQSLLNSGNQKNYLTWYQQKPGQPPKLLIYWASTRESGVPDRFSGSGSGTDFTLTISSLQAEDVAVYHCQNDYSYPYTFGQGTKLEIKR | – | – | no binding (tested: 2 µg/ml) | binds | 88% | 59% | 0.629 nM | 0.00178 s⁻¹ | 2.83e+06 M⁻¹ s⁻¹ | – |
| m6C8 (antibody, human IgG1, V domains shown, also called murine antibody 6C8) VH: QVTLKESGPGILKPSQTLSLTCSFSGFSLSTSGMGVGWIRQPSGKGLEWLAHIWWDDDKYYNPSLKSQLTISKDTSRNQVFLKITSVDTADAATYYCARTRRYFPFAYWGQGTLVTVSS VL: DIVMTQSQKFMSTSVGDRVSVTCKASQNVGTNVAWYQQKPGQSPKALIYSASYRYSGVPDRFTGSGSGTDFTLTINNVHSEDLAEYFCQQYNTDPLTFGAGTKLEIKR | – | – | – | – | 10% | – | – | – | – | 62% |
| chimeric parental 231-32-15 antibody (antibody, human IgG1, V domains shown, Murine variable regions on human IgG1 (CH1-2-3) and human kappa constant regions; T109S (Kabat) in the light chain constant domain) VH: QVQLLQSGTELVRPGVSVKISCKGSGYTFTDYAMYWVKQSHAKSLEWIGVIRTYSGDVTYNQKFKDKATMTVDKSSSIAYMELARLSSEDSAIYYCAKSGTVRGFAYWGQGTLVTVSS VL: DIVMTQSPSSLTVTAGEKVIMSCKSSQSLLNSGNQKNYLTWYQQKPGQPPKLLIYWASTRESGVPDRFTGSGSGTDFTLTISSVQAEDLAVYHCQNDYSYPYTFGGGTKLEIK | – | – | no binding (tested: 2 µg/ml) | binds | 82% | 37% | 2.02 nM | 0.000712 s⁻¹ | 352000 M⁻¹ s⁻¹ | – |
